# Laboratory results reported in US5929223.
# Target: T1, dCREB2-a (Drosophila melanogaster) (UniProt Q9VWW0)
# T1 sequence: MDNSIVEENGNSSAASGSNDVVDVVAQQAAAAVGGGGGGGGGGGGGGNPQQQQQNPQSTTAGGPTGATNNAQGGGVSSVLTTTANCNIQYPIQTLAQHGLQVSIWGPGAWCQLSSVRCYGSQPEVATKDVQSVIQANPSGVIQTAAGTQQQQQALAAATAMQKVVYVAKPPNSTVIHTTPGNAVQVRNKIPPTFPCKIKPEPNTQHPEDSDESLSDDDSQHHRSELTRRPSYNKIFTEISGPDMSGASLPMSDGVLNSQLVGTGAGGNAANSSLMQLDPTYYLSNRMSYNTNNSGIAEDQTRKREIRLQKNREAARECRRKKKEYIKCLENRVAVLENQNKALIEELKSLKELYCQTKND
# Experiment: cell_activity
# Conditions: F9 cells, with PKA, relative to PKA alone
substance,measurement,value
D(-71) CAT somatostatin promoter CRE fragment,activity,5.4 fold
